# Residue numbers refer to the chain shown, from its start. Names may count otherwise.
# B1: CODA405: engineered receptor: Y210V in SEQ ID NO: 33 (protein)
# chain: MRCSPGGVWLALAASLLHVSLQGEFQRKLYKELVKNYNPLERPVANDSQPLTVYFSLSLLQIMDVDEKNQVLTTNIWLQMSWTDHYLQWNVSEYPGVKTVRFPDGQIWKPDILLYNSADERFDATFHTNVLVNSSGHCQYLPPGIFKSSCPMDLKNFPMDVQTCKLKFGSWSYGGWSLDLQMQEADISGYIPNGEWDLVGIPGKRSERFVECCKEPYPDVTFTVTMRRRMGYYLIQMYIPSLLIVILSWISFWINMDAAPARVGLGITTVLTMTTQSSGSRASLPKVSYVKAIDIWMAVCLLFVFSALLEYAAVNFVSRQHKELLRFRRKRRHHKSPMLNLFQEDEAGEGRFNFSAYGMGPACLQAKDGISVKGANNSNTTNPPPAPSKSPEEMRKLFIQRAKKIDKISRIGFPMAFLIFNMFYWIIYKIVRREDVHNQ
# modifications: synthetic sequence of chimeric LGIC
# B2: CODA407: engineered receptor: Y210F in SEQ ID NO: 33 (protein)
# chain: B1 chain with V210F
# modifications: synthetic sequence of chimeric LGIC
# Tested on: engineered chimeric receptor SEQ ID NO: 33 and its mutants (human α7-nAChR ligand binding domain / human GlyRα1 ion pore domain) in Lenti-X 293T cells
# Assay: YFP fluorescence quenching anion reporter plate reader assay (percent quench, EC50)
# Assay type: cell-based
# Details: for YFP fluorescence quenching using CNL001 (percent quench): receptor named in row; for YFP fluorescence quenching using Facinicline, 30 nM fac: ligand Facinicline 30 nM; for YFP fluorescence quenching using Facinicline, 300 nM fac: ligand Facinicline 300 nM; for YFP fluorescence quenching using Facinicline, 30 uM fac: ligand Facinicline 30 uM; for YFP fluorescence quenching using TC-6987, 1 uM tc6987: ligand TC-6987 1 uM; for YFP fluorescence quenching using TC-6987, 10 uM tc6987: ligand TC-6987 10 uM; for YFP fluorescence quenching using TC-6987, 500 uM tc6987: ligand TC-6987 500 uM; for YFP fluorescence quenching using Varenicline, 3 nM var: ligand Varenicline 3 nM; for YFP fluorescence quenching using Varenicline, 30 nM var: ligand Varenicline 30 nM; for YFP fluorescence quenching using Varenicline, 300 nM var: ligand Varenicline 300 nM; for YFP fluorescence quenching using Varenicline, 500 nM var: ligand Varenicline 500 nM; for YFP fluorescence quenching using Varenicline, 1 uM var: ligand Varenicline 1 uM
# Procedure, shortened: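 Lenti-X 293T cells co-expressing an anion-quenchable YFP were transiently transfected with receptor DNA, then ligand was added in NaI-substituted buffer (pH 7.2) after 30 min at 37 °C. Fluorescence was read about 2 min; percent quench = mean of last 10 s over 15 s pre-ligand baseline.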
# [1] = 1 nM CNL001, first column so headed
# [2] = 1 nM CNL001, second column so headed
# [3] = 3 nM brd (TC-5619/Bradanicline)
# [4] = 10 nM CNL001, first column so headed
# [5] = 10 nM CNL001, second column so headed
# [6] = 30 nM brd (TC-5619/Bradanicline)
# [7] = 50 nM CNL001, first column so headed
# [8] = 50 nM CNL001, second column so headed
# [9] = 100 nM CNL001, first column so headed
# [10] = 100 nM CNL001, second column so headed
# [11] = 300 nM brd (TC-5619/Bradanicline)
# [12] = 1 uM CNL001, first column so headed
# [13] = 1 uM CNL001, second column so headed
molecule,measurement,setting,value
B1,YFP fluorescence quenching using CNL001 (percent quench),[1],−16.246%
same,YFP fluorescence quenching using CNL001 (percent quench),[2],−4.217%
same,YFP fluorescence quenching using TC-5619/Bradanicline (percent quench),[3],9.92%
same,YFP fluorescence quenching using CNL001 (percent quench),[4],−6.142%
same,YFP fluorescence quenching using CNL001 (percent quench),[5],−10.003%
same,YFP fluorescence quenching using TC-5619/Bradanicline (percent quench),[6],4.37%
same,YFP fluorescence quenching using CNL001 (percent quench),[7],−11.054%
same,YFP fluorescence quenching using CNL001 (percent quench),[8],−10.06%
same,YFP fluorescence quenching using ABT-126 (percent quench),50 nM abt (ABT-126),−2.9%
same,YFP fluorescence quenching using CNL001 (percent quench),[9],−3.832%
same,YFP fluorescence quenching using CNL001 (percent quench),[10],−3.784%
same,YFP fluorescence quenching (percent quench),100 nM CNL002,−14.3%
same,YFP fluorescence quenching using ABT-126 (percent quench),100 nM abt (ABT-126),−2.06%
same,YFP fluorescence quenching using AZD-0328 (percent quench),100 nM azd0328,−8.13%
same,YFP fluorescence quenching using ABT-126 (percent quench),300 nM abt (ABT-126),−0.19%
same,YFP fluorescence quenching using AZD-0328 (percent quench),300 nM azd0328,−3.35%
same,YFP fluorescence quenching using TC-5619/Bradanicline (percent quench),[11],59%
same,YFP fluorescence quenching using CNL001 (percent quench),[12],1.129%
same,YFP fluorescence quenching using CNL001 (percent quench),[13],7.1%
same,YFP fluorescence quenching (percent quench),1 uM CNL002,−7.56%
same,YFP fluorescence quenching using ABT-126 (percent quench),1 uM abt (ABT-126),−3.64%
same,YFP fluorescence quenching (percent quench),10 uM ach (acetylcholine),−6.31%
same,YFP fluorescence quenching (percent quench),30 uM CNL002,−2.02%
same,YFP fluorescence quenching using AZD-0328 (percent quench),30 uM azd0328,−2.86%
same,YFP fluorescence quenching (percent quench),100 uM ach (acetylcholine),−14.48%
same,YFP fluorescence quenching (percent quench),1 mM ach (acetylcholine),−2.82%
same,YFP fluorescence quenching (percent quench),3 mM ach (acetylcholine),1.06%
same,"YFP fluorescence quenching using Facinicline, 30 nM fac",,−26.25
same,"YFP fluorescence quenching using Facinicline, 300 nM fac",,−23.52
same,"YFP fluorescence quenching using Facinicline, 30 uM fac",,0.83
same,"YFP fluorescence quenching using TC-6987, 1 uM tc6987",,−22.63
same,"YFP fluorescence quenching using TC-6987, 10 uM tc6987",,−23.03
same,"YFP fluorescence quenching using TC-6987, 500 uM tc6987",,−40.88
same,"YFP fluorescence quenching using Varenicline, 3 nM var",first column,7.317
same,"YFP fluorescence quenching using Varenicline, 3 nM var",second column,7.643
same,"YFP fluorescence quenching using Varenicline, 30 nM var",first column,9.457
same,"YFP fluorescence quenching using Varenicline, 30 nM var",second column,9.134
same,"YFP fluorescence quenching using Varenicline, 300 nM var",first column,15.503
same,"YFP fluorescence quenching using Varenicline, 300 nM var",second column,11.954
same,"YFP fluorescence quenching using Varenicline, 500 nM var",first column,13.427
same,"YFP fluorescence quenching using Varenicline, 500 nM var",second column,10.784
same,"YFP fluorescence quenching using Varenicline, 1 uM var",first column,9.032
same,"YFP fluorescence quenching using Varenicline, 1 uM var",second column,11.591
B2,YFP fluorescence quenching using CNL001 (percent quench),[1],−10.845%
same,YFP fluorescence quenching using CNL001 (percent quench),[2],−2.629%
same,YFP fluorescence quenching using TC-5619/Bradanicline (percent quench),[3],−0.53%
same,YFP fluorescence quenching using CNL001 (percent quench),[4],4.66%
same,YFP fluorescence quenching using CNL001 (percent quench),[5],12.246%
same,YFP fluorescence quenching using TC-5619/Bradanicline (percent quench),[6],8.71%
same,YFP fluorescence quenching using CNL001 (percent quench),[7],29.307%
same,YFP fluorescence quenching using CNL001 (percent quench),[8],41.78%
same,YFP fluorescence quenching using ABT-126 (percent quench),50 nM abt (ABT-126),−13.07%
same,YFP fluorescence quenching using CNL001 (percent quench),[9],50.654%
same,YFP fluorescence quenching using CNL001 (percent quench),[10],62.054%
same,YFP fluorescence quenching (percent quench),100 nM CNL002,−12.47%
same,YFP fluorescence quenching using ABT-126 (percent quench),100 nM abt (ABT-126),0.1%
same,YFP fluorescence quenching using AZD-0328 (percent quench),100 nM azd0328,0.85%
same,YFP fluorescence quenching using ABT-126 (percent quench),300 nM abt (ABT-126),5.97%
same,YFP fluorescence quenching using AZD-0328 (percent quench),300 nM azd0328,1.25%
same,YFP fluorescence quenching using TC-5619/Bradanicline (percent quench),[11],76.26%
same,YFP fluorescence quenching using CNL001 (percent quench),[12],81.742%
same,YFP fluorescence quenching using CNL001 (percent quench),[13],81.304%
same,YFP fluorescence quenching (percent quench),1 uM CNL002,−3.93%
same,YFP fluorescence quenching using ABT-126 (percent quench),1 uM abt (ABT-126),50.23%
same,YFP fluorescence quenching (percent quench),10 uM ach (acetylcholine),−3.75%
same,YFP fluorescence quenching (percent quench),30 uM CNL002,80.97%
same,YFP fluorescence quenching using AZD-0328 (percent quench),30 uM azd0328,82.08%
same,YFP fluorescence quenching (percent quench),100 uM ach (acetylcholine),−1.6%
same,YFP fluorescence quenching (percent quench),1 mM ach (acetylcholine),71.65%
same,YFP fluorescence quenching (percent quench),3 mM ach (acetylcholine),79.09%
same,"YFP fluorescence quenching using Facinicline, 30 nM fac",,−21.94
same,"YFP fluorescence quenching using Facinicline, 300 nM fac",,−22.46
same,"YFP fluorescence quenching using Facinicline, 30 uM fac",,82.63
same,"YFP fluorescence quenching using TC-6987, 1 uM tc6987",,−15.22
same,"YFP fluorescence quenching using TC-6987, 10 uM tc6987",,−19.89
same,"YFP fluorescence quenching using TC-6987, 500 uM tc6987",,−33.32
same,"YFP fluorescence quenching using Varenicline, 3 nM var",first column,2.441
same,"YFP fluorescence quenching using Varenicline, 3 nM var",second column,7.326
same,"YFP fluorescence quenching using Varenicline, 30 nM var",first column,1.275
same,"YFP fluorescence quenching using Varenicline, 30 nM var",second column,12.96
same,"YFP fluorescence quenching using Varenicline, 300 nM var",first column,13.119
same,"YFP fluorescence quenching using Varenicline, 300 nM var",second column,2.355
same,"YFP fluorescence quenching using Varenicline, 500 nM var",first column,11.539
same,"YFP fluorescence quenching using Varenicline, 500 nM var",second column,6.571
same,"YFP fluorescence quenching using Varenicline, 1 uM var",first column,8.397
same,"YFP fluorescence quenching using Varenicline, 1 uM var",second column,7.309

# Reference: patent US20250152742A1, “COMPOSITIONS AND METHODS FOR NEUROLOGICAL DISEASES” (Trames Bio, Inc., priority 2022, published 2025)
